The source of these data is a protein production outcome set (Wang et al. 2014).

The data set in a line: label from the status in PepcDB records.
On to “MTFVLNTFGRLQLVDGQGSLVAFPEKGLLLLVYLLTTGEGSADRTSLARFLWGDADRDVALSTLRKLISRIKARQTELGINILSSQGNMVSLDRESLSSDLLLSETDEAVASFSLLKHLVKLLNQPFLGPVHCHSREFQHWLAEREKSHIDLLANTLKAVSQRAQSRTESELLRKAAIILFRTEPKDPDTLQLLIEIFKAEEEVESLRNHFEQRRISISRGIAVRTASDGGDTKPVLPALAPSREKHATAVSLEPEDISIAIPRLVLLPPRNQSIHPQAGFLAASLVEDITIGFCAFNSLQVIAPYSAVQIGHHMETQKAFFERHHVNYILDTRISNAGDDVTLFAQLIFFDQNQIVWAERFSLDHRDLVKDRRTVSRRIALSISSEIERHEALREDLNPAAYHRYLVGRRHLARLTLPNLRRARKEMKAALSVSPDFAPALSSMARTYSKEWLLTARGDIDLLKTAETLATQATETRPDFADGYREFGVAKLLQGAFDQSAEAMEVAESLAPHYADVIADYADTLVHCSLPAIALRKIERAIELNPLSPDTYFWTAAGANYALGEFEASLDYIGQMADASLADRLAAANWAMLGHQDKARTFVRRFREVNPDFDVDKWLSAVPSKEQWHKDLYREGLKKAGF”, for which the protein production result is reported as “failed”.

Regarding “MTGAETGSHFRRHALDAKPIGMSDHEQTKLIATAMNEGSPQAKALGFTTLEIGDAVALLKVPYRPEIIGDPETGVIAGGVVTTLLDHASGQAVHAAMETWTSIATLDLRIDYMRAAEPGLDVMARAHCYKLTRSVAFVRAVAYDRDPEDPIATGQATFMLDSSAGKKAGANLKPSRQQRSKTGGVDQ”, the protein production entry is recorded as “failed”.

In the case of “MTGCSHRFYYSHMIQTSVRSFEVGEDLASMAVDERISLLRSRMQSISKSGDFSLDYNCKTADKNIIPLSDPLSHVLPWGGLPRGMIVESTITPLLAILFIAQVSGSGRRVGVVGWPDLNYAGVLGYGGCYERIFAVPQQERTSLRVVTALAHGCDLVITRAGPTPRTYTPLQTQRFRNSLRSDAGCVIMMGDHVVSPAARLASAVVGYHGIGKGTGRIKAVEITVTGIAKGFYRTSRVIVGKHIAPAAEKTTMKVVLEHHHHHH”, the protein production entry was “not failed”.

As to “MTGEGTNYLIVGSDSRAGMSAEEKKKLHTGSAEGKRTDSMMILHTGDNGSTLVSLPRDSDVEIPTFKGSTSGKTYPGTGRHVKLNAAYAEDGPELLVRTIEYNTGLHIDHYVEIGFAGFANIVDSVGGVEMTLDKGFKDTFSGADFKAGKQTLNGEQALAFVRTRHAFAASDLERTKNQQKFLSALAHQVATPSTVLNPFKLYPTLSSGLDTLIVDKDMGLFDLADMFWAMKGVTGGDGTSMNMPISGSSGGNLVWDKAKVKALVNELKNDEKVTVSGNLEHHHHHH”, the protein production result is “not failed”.

With “MTGEVPGAAAQVFARAEALRDLGRPAEALGLVRQGLASDPHDVTLLVLATTLSLALEDYAQAADFATQAAAQAPGWALPLALLAQARRLADDPAGGKQAAQAALHLDPDEALAHFEVGLATALEAEQAPLWHRRRLLTEARAAASRVEALWPGQADGPALQALIDIVAGHWPQHEANIARALEREPDDSFAHNVRLLGLQARHSGETVPQLYERLRSRPDDVFARSQCVPTFPSRAGCGSIGGAGGGFFHCWW”, the protein production result is “failed”.

As to “MTGGLLVTGGSGAIGGALCRIAARQHPVWVGYGAGAGRARALAAEITQAGGRAEPLALPLQDPAALETALAALPEPPASLALCAWPAPFVAPFGRQGEDLALQAAALAGCHALIATAWRLWWRRAGGGHVLAVLSAASEPPVARHMAAYVAQKAALRALLAAAAAELGPAGLRVSVVAPGFVETPMLGAFDPRLLERARADAGGRFLSPERVAQALVAALDAPPPAGTVQDIHLAEEVESDEKQTA”, the protein production entry is “failed”.

On to “MTGKEDEYEFEKTEKSSSLDEESTGSEVNEQKESYLDIINIIGSLMQDENYSLKNESILTINKILSFLNKEIYENKNFTEAWLIKGTVLYKTGKYNGAIDAFDGALESMSEKTSEEKLDTWIKSYGINYRYALKFKAFSLCKLGRYREALNALDEISAIYPEDPEIESHKNMLQTLENERLIRRTGNTQDQPPKHPGIWERRGKSSYKLGKYEEAVKEFDRCLESNPKDADILRNKGSALYMLGRYEEAIEAFNKSLELNPRDADAWNLKGSTLYMIGRPEEALRALDKALQRNPNIFEAWFNKGSILFELGKYKQALSAVENALRINAEDINALTLKTSILSGLKQDEK”, for which the protein production entry is reported as “failed”.

With “MTGPDRVALLVLAALVLDWLLGDPRWLPHPVVAVGRLVTALERQLRRLVTNERAAGVILLVLTVGITGGTAWLLVLGAGLVHPVAGFAVEALLGWTCLAARSLHGESKLVADALAAGDLAEARFFLSRIVGRDTAELTEPEIWRGVVETVAENTSDGVIAPLFWFMIGGAPLALAYKAVNTLDSMVGYKNERYLHFGWASARFDDLVNLLPARITGLLMVLSAPLAGLSGPGAWRIMRRDGRNHSSPNAGIPEAAAAGALGVRLGGMNVYFGRPVAKPTIGDPLNPLDRTAWRGAVRLMYGSEILLTGFMLCYLFVLERP”, the protein production entry is “failed”.

Regarding “MTGRLVLAATPMGDVGDASPRLRTALGTADVVAAEDTRRTKALASALDVTITGKVVSFYDQVETARLPALVADVASGKTVLLVTDAGMPSVSDPGYRLVSACVAEDLAVTCLPG”, the protein production result was “failed”.

As for “MTGSVVVAGLGPGAQELITPEVSAALALATDIVGYAPYVARVAERDGLQRHASDNREELDRAGFALRLATEGRHVVIVSSGDPGVFAMAAALFEAIEAGDPSWRELDIRVLPGISAMFATAARIGAPLGHDFCAINLSDNLKPWETVEKRLRAAAEADFVIALYNPISKARPWQLGRAFELLRSIHPASVPVIFATAISDPRERIDVAPLGEAVPQRADMRTLVMIGSSQTRIIPRSSGADFVYTPRFSGAVS”, the protein production entry is on record as “failed”.

With “MTGTLLSFGHGYTARVLSRALAPQGWRIIGTSRNPDQMEAIRASGAEPLLWPGEEPSLDGVTHLLISTAPDSGGDPVLAALGDQIAARAAQFRWVGYLSTTAVYGDHDGAWVDETTPLTPTAARGRWRVMAEQQWQAVPNLPLHVFRLAGIYGPGRGPFSKLGKGGIRRIIKPGQVFSRIHVEDIAQVLAASMARPDPGAVYNVCDDEPVPPQDVIAYAAELQGLPLPPAVDFDKADLTPMARSFYSENKRVRNDRIKEELGVRLKYPNYRVGLEALQADAET”, the protein production entry is “not failed”.

On to “MTHIIIDGDACPVVDSIIDLTTETGIFVTIIRSFSHFSNQLYPPHVSTLYVDDGPDAVDYKIVQLSTKDDIVVTQDYGLASLLVDKVLIVMHHNGKIYNSKNIQQLLDKRYINAQIRKQGGRHKGPPPFTKQDQKVFEQSLLKVIHRIKELDLEHHHHHH”, for which the protein production result was “not failed”.

With “MTHLQGVRHAHRQVTAGVRGLTRHLCMVLVGCSLGLVAAGCTREPSSPTARASHSDAAPATPTASPAPASTPPPAADPSVLRVCADPGNMPLSNKAGEGFQNKIAQVVAEAMGRRLEYEWRTYYQRGLARSTINAGRCDVLMDLNSDFEMGLTTRPLYRSPYVLVTRKGLDLVPTSLDDPALKKLRLGVFQSSPARQALYEHGVSGEVKYLFYDSATAPEEHPGKLVERVAAGELDAAESWGPVAGYYAARNNLGVVPLNTIDDAVLEYSMAWAVARKNAALRDALNTALQQSAAKIDEILRSYHVPLVRCADCIVAGDLASHGPYVTPASAPKSTNAATSSQELAQLQLRIADGADPNQELAHALDAGDALRAAWLLRHGADANQPNLLGEPPLHQAIRNQEPDLVGLLIDAGARLDARDGNGWTALMKAAWGNDADSVQRLLARRAPLDTVSSDGWNALELAVSYADVGVVEALLKAGAKARGANRTGFTPVMFAVPREDPAILDALLKHGADVRGANQAGVTALMLAAASGREATAKRLLAAGADPAARNRDGKTAATLAQERGDAALAALLAPGKRSTTQ”, the protein production entry is reported as “failed”.

On to “MTHNHHHQAVDNLLNVFSRASHDLTVVHSKLDKEFQQMYPANANPMKLIQRIKKLQEDVTLLKHQCLDLLSAKQDLIDKAQTTLVGNCNLIQKMNASLGESTNGDTDDALADFNQIIDEWTMQVRSRTVGETEDADKEDINKMLFSAICHTN”, for which the protein production result is given as “failed”.

For “MTHQVIDCLGVVLAGGLSSRMGQDKAQLKRLQKTTDPSAKSAHSMLDFSKQLLADAGIKNIVISGDNHQIPDRVPHAGPVGGIYSVLSHYLANSPEHLQPKALLILPVDLPLMTASALTELRLKGELSHKATFFSDRQKNRHHIPLYLPNNAFLNMFLMQAFHREELLANSKGNNKKNGPSVRAMLEQVPHQAIASLNNQVLFNTNTPEQWQQAQQKF”, the protein production entry was “failed”.

“MTHRIAPRCFSTIMLLCLLYTSPLDVIAQGQGGQGDIPVVNPTAPGGSTTTPTITQPSPPSLTFPGPTTPTGGYPPLDGTTPTGGYPPLYGTTPPGGGDVGGGGGGYGGGTPGGGGGGGGDTGAGAGGGGYGGGGDTGAGGGVGSGQWCIAKANASPTSLQVALDYACGYGGADCGQIQQGAACYEPNTIRDHASFAFNSYYQKHPGSDSCNFGGAAQLTSTDPSKTS”: the protein production result is reported as “failed”.

Take “MTHTIIHPSSSKSSFESPAMAYRINCQQGQTHLLWVTLRLTAPQTDVLDLHLPVWTPGSYLVREYARHLQDFTAATADGTPLEWWKCTKNQWQVACTPGLELKVRYAIYAHELSVRTSHFDRSHAYFNPAAVCLYVPQYRDQPLTITIEAPPDWRVTTPLEGWGEDGRTFWAPNYDLLVDSPFEVGTHGIYTFEVDGKPHELAVWGKGNFDPKRAIADIQRIIETEASFFGGLPYDRYVFILHLTHKGYGGLEHLNSCSLIFHRFGFQQPEQYCRFLCLVAHEFFHLWNIKRIRPQAFEVFDYDSENYTTSLWFVEGVTSYFDQLIPLWAGLFDAPTYLKLLSDSLNRYFHTPGRFVQSLSAASFDAWIKLYRPDENSINSQMSYYLKGELVALLLDLRIRLNFNHQRSLLDVLRRLWQRYCETGEGYTPDELWQTIETVADENLSTWREQFIEGTVELPLQEWLTKVGLELVPQDALPYTGLQFQQEQGSLQIKAVLRDSPAEQAGLGAGDEIIALNGWRVKAQDWSERLREYTAGETIHLTWFHDQQLQSGDLILGEPQPHYRLQCRADATPSQRAHLEAWLGATATQL”: the protein production entry was “failed”.

For the sequence “MTIAILPARLANQIAAGEVVERPASVIKELIENSLDAGATSIHIDVDKGGIKKIKITDNGHGIVKEELTLALSRHATSKIKSLNDLEAIGSLGFRGEALASISSVARLTLTSKPQSQATAWQAVAEGRDMSVNIKPAAHPDGTSIEVLDLFFNTPARRKFLRTEKTEFNHIDEVVRRIALAHFEVSFSLTHNGNTVRQYRMASTHAQCIKRVAMVCGPKFIEHAVEVDCPHDNMTLSGWLAKPSFSRSQNDLCYSYVNGRMMRDKLINHAIRQAYADLLPPDTYPAFVLFLQLDHREVDVNVHPSKHEVRFHQSRYVHDFIYSVCHKALTSALAGEELFTTADSDLALVPEQSYSSLGANDRQGSHSSNTPTLNYPSADYIRPLQHVNDASNSQSTSSYSGYGQQHKTNAISKIAASNYQALMTPDKGSSAQVQNTSGSDQASAQKHETTTLQNSTDQSAFLSVHQPGYALYKTENGVRVLSLFKLAKSTYGKLVEQSWQNKTEQSDCPVECLVSQPLLLPVILSLSEQQLSFVLAEQEILSNAGIVFIQQHKNKIQIRQFPALLREQDVSNALIIIIEELIEKRSFTEGEALCETNLHQSIGLAMVLAEYDETQADILLRLTKKLFHEQLSQQLLLNSIPLDLTSHIKTLF”, the protein production result is recorded as “failed”.

As for “MTIATIDIGGTGIKFASLTPDGKILDKTSISTPENLEDLLAWLDQRLSEQDYSGIAMSVPGAVNQETGVIDGFSAVPYIHGFSWYEALSSYQLPVHLENDANCVGLSELLAHPELENAACVVIGTGIGGAMIINGRLHRGRHGLGGEFGYMTTLAPAEKLNNWSQLASTGNMVRYVIEKSGHTDWDGRKIYQEAAAGNILCQEAIERMNRNLAQGLLNIQYLIDPGVISLGGSISQNPDFIQGVKKAVEDFVDAYEEYTVAPVIQACTYHADANLYGALVNWLQEEKQW”, the protein production entry is given as “not failed”.
